Experimental data taken from patent US20260103532A1 (published 2026).

Target: CD40 (UniProt P25942 21-193, limits assumed)
Assay: not stated (affinity given in the study drug description; no method)

Chain of CD40 (P25942 21-193 limits assumed): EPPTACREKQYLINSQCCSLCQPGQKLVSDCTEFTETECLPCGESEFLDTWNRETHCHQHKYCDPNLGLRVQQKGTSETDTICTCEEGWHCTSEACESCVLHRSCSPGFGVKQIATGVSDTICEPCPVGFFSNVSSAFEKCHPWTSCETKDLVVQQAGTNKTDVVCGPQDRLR

Kd: 7.2 nM
B1: KPL-404 (antibody, human IgG4 S228P, kappa, V domains shown)
VH: QVQLVQSGAEVKKPGASVKVSCKASGYTFTNYWMHWVRQAPGQRLEWIGYINPSNDYTKYNQKFKDRATLTADKSANTAYMELSSLRSEDTAVYYCARQGFPYWGQGTLVTVSS
VL: EIVLTQSPATLSLSPGERATLSCSASSSVSYMHWYQQKPGQAPRRWIYDTSKLASGVPARFSGSGSGTDYTLTISSLEPEDFAVYYCHQLSSDPFTFGGGTKVEIKR
notes: also called humanized anti-CD40 antibody; KPL-404 drug product
